From patent publication US10030233B2, “Modified P450 reductase with N-terminal deletions and endoplasmic reticulum retention tag” (DE MONTFORT UNIVERSITY, priority 2013, dated 2018)

B1: ΔN2hRD-HDEL: human P450 reductase lacking the 54-amino acid membrane anchoring region, with C-terminal yeast ER retention signal HDEL (protein)
chain: MTKIQTLTSSVRESSFVEKMKKTGRNIIVFYGSQTGTAEEFANRLSKDAHRYGMRGMSADPEEYDLADLSSLPEIDNALVVFCMATYGEGDPTDNAQDFYDWLQETDVDLSGVKFAVFGLGNKTYEHFNAMGKYVDKRLEQLGAQRIFELGLGDDDGNLEEDFITWREQFWPAVCEHFGVEATGEESSIRQYELVVHTDIDAAKVYMGEMGRLKSYENQKPPFDAKNPFLAAVTTNRKLNQGTERHLMHLELDISDSKIRYESGDHVAVYPANDSALVNQLGKILGADLDVVMSLNNLDEESNKKHPFPCPTSYRTALTYYLDITNPPRTNVLYELAQYASEPSEQELLRKMASSSGEGKELYLSWVVEARRHILAILQDCPSLRPPIDHLCELLPRLQARYYSIASSSKVHPNSVHICAVVVEYETKAGRINKGVATNWLRAKEPAGENGGRALVPMFVRKSQFRLPFKATTPVIMVGPGTGVAPFIGFIQERAWLRQQGKEVGETLLYYGCRRSDEDYLYREELAQFHRDGALTQLNVAFSREQSHKVYVQHLLKQDREHLWKLIEGGAHIYVCGDARNMARDVQNTFYDIVAELGAMEHAQAVDYIKKLMTKGRYSLDVWSHDEL
modifications: delN2hRD-HDEL
notes: human P450 reductase lacking the 54-amino acid membrane anchoring region, with C-terminal yeast ER retention signal HDEL
B2: ΔN1hRD-HDEL: human P450 reductase lacking N-terminal 24 amino acids, with C-terminal yeast ER retention signal HDEL (protein)
chain: MTDMILFSLIVGLLTYWFLFRKKKEEVPEFTKIQTLTSSVRESSFVEKMKKTGRNIIVFYGSQTGTAEEFANRLSKDAHRYGMRGMSADPEEYDLADLSSLPEIDNALVVFCMATYGEGDPTDNAQDFYDWLQETDVDLSGVKFAVFGLGNKTYEHFNAMGKYVDKRLEQLGAQRIFELGLGDDDGNLEEDFITWREQFWPAVCEHFGVEATGEESSIRQYELVVHTDIDAAKVYMGEMGRLKSYENQKPPFDAKNPFLAAVTTNRKLNQGTERHLMHLELDISDSKIRYESGDHVAVYPANDSALVNQLGKILGADLDVVMSLNNLDEESNKKHPFPCPTSYRTALTYYLDITNPPRTNVLYELAQYASEPSEQELLRKMASSSGEGKELYLSWVVEARRHILAILQDCPSLRPPIDHLCELLPRLQARYYSIASSSKVHPNSVHICAVVVEYETKAGRINKGVATNWLRAKEPAGENGGRALVPMFVRKSQFRLPFKATTPVIMVGPGTGVAPFIGFIQERAWLRQQGKEVGETLLYYGCRRSDEDYLYREELAQFHRDGALTQLNVAFSREQSHKVYVQHLLKQDREHLWKLIEGGAHIYVCGDARNMARDVQNTFYDIVAELGAMEHAQAVDYIKKLMTKGRYSLDVWSHDEL
modifications: delN1hRD-HDEL
notes: human P450 reductase lacking N-terminal 24 amino acids, with C-terminal yeast ER retention signal HDEL
B3: ΔN1hRD-M: human P450 reductase lacking N-terminal 24 amino acids, with C-terminal 12-amino acid c-myc tag; described in WO 2007/129050; gene SEQ ID NO: 5 (protein)
chain: MTDMILFSLIVGLLTYWFLFRKKKEEVPEFTKIQTLTSSVRESSFVEKMKKTGRNIIVFYGSQTGTAEEFANRLSKDAHRYGMRGMSADPEEYDLADLSSLPEIDNALVVFCMATYGEGDPTDNAQDFYDWLQETDVDLSGVKFAVFGLGNKTYEHFNAMGKYVDKRLEQLGAQRIFELGLGDDDGNLEEDFITWREQFWPAVCEHFGVEATGEESSIRQYELVVHTDIDAAKVYMGEMGRLKSYENQKPPFDAKNPFLAAVTTNRKLNQGTERHLMHLELDISDSKIRYESGDHVAVYPANDSALVNQLGKILGADLDVVMSLNNLDEESNKKHPFPCPTSYRTALTYYLDITNPPRTNVLYELAQYASEPSEQELLRKMASSSGEGKELYLSWVVEARRHILAILQDCPSLRPPIDHLCELLPRLQARYYSIASSSKVHPNSVHICAVVVEYETKAGRINKGVATNWLRAKEPAGENGGRALVPMFVRKSQFRLPFKATTPVIMVGPGTGVAPFIGFIQERAWLRQQGKEVGETLLYYGCRRSDEDYLYREELAQFHRDGALTQLNVAFSREQSHKVYVQHLLKQDREHLWKLIEGGAHIYVCGDARNMARDVQNTFYDIVAELGAMEHAQAVDYIKKLMTKGRYSLDVWSSSEQKLISEEDLNGSRL
modifications: delN1hRD-M
B4: hRD: wild-type human P450 reductase, full length, control (protein, listed as Homo sapiens)
chain: MGDSHVDTSSTVSEAVAEEVSLFSMTDMILFSLIVGLLTYWFLFRKKKEEVPEFTKIQTLTSSVRESSFVEKMKKTGRNIIVFYGSQTGTAEEFANRLSKDAHRYGMRGMSADPEEYDLADLSSLPEIDNALVVFCMATYGEGDPTDNAQDFYDWLQETDVDLSGVKFAVFGLGNKTYEHFNAMGKYVDKRLEQLGAQRIFELGLGDDDGNLEEDFITWREQFWPAVCEHFGVEATGEESSIRQYELVVHTDIDAAKVYMGEMGRLKSYENQKPPFDAKNPFLAAVTTNRKLNQGTERHLMHLELDISDSKIRYESGDHVAVYPANDSALVNQLGKILGADLDVVMSLNNLDEESNKKHPFPCPTSYRTALTYYLDITNPPRTNVLYELAQYASEPSEQELLRKMASSSGEGKELYLSWVVEARRHILAILQDCPSLRPPIDHLCELLPRLQARYYSIASSSKVHPNSVHICAVVVEYETKAGRINKGVATNWLRAKEPAGENGGRALVPMFVRKSQFRLPFKATTPVIMVGPGTGVAPFIGFIQERAWLRQQGKEVGETLLYYGCRRSDEDYLYREELAQFHRDGALTQLNVAFSREQSHKVYVQHLLKQDREHLWKLIEGGAHIYVCGDARNMARDVQNTFYDIVAELGAMEHAQAVDYIKKLMTKGRYSLDVWS

How the values were obtained:
[1] = tested on: CYP2D6; experiment: Amount of CYP2D6 in yeast microsomes by CO-difference spectra, co-expressed with P450 reductase variants; assay type: cell-based, human; conditions: relative to hRD = 1; genes synthesized using yeast biased codons; yeast W303B, pSYE264
Experimental: (§1) The hRD variant genes, (ΔN1hRD-M, ΔN1hRD-HDEL, ΔN2hRD-HDEL), were integrated into Saccharomyces cerevisiae strain W303B (MAT a leu2 his3 trp1 can1-100 ade2 trp1 ura3) using standard yeast transformation procedures as detailed below. The integrating plasmids, bearing the ΔN1hRD-M, ΔN1hRD-HDEL, ΔN2hRD-HDEL genes, were first linearised with the restriction enzyme BstEII before introducing linearised DNA into yeast cells via homologous recombination. The resultant strains were named: • a) W303B-ΔN1hRD-M, • b) W303B-ΔN1hRD-HDEL, • c) W303B-ΔN2hRD-HDEL.
(§2) They were used for the transformation of the yeast episomal plasmids that bear the CYP2D6 and CYP1A2 genes: • 1. pSYE264 (bearing the human CYP2D6 gene), • 2. pSYE265 (bearing the human CYP1A2 gene).
(§3) A single colony from the strains W303B-ΔN1hRD-M, W303B-ΔN1hRD-HDEL, W303B-ΔN2hRD-HDEL were picked up from a minimal medium (SD) plate (supplemented with appropriate nutrients depending on the auxotrophic markers in the yeast strain) and inoculated into 10 ml of YPD medium (2% Bacto Peptone, 1% yeast extract, 2% glucose). The cells were grown overnight at 30° C. with 220 rpm shaking. 1.5 ml of overnight cultures were centrifuged at 13,000 rpm for a few seconds to collect the cell pellets. 0.5-2 μg of transforming DNA (i.e. the CYP bearing expression plasmids, pSYE264 and pSYE265) and 100 μg of single-stranded salmon sperm DNA were added to pellets and vortexed briefly. 500 μl of PEG solution (40% PEG 3350, 0.1M lithium acetate pH 7.5, 10 mM Tris-HCl pH 7.5, 1 mM EDTA pH7.5) and 5-10% DMSO were added to transformation mixes. All mixes were incubated in a Thermo-mixer for 15 min at 25° C. with shaking at 400 rpm, and then were heat shocked for 15 min at 42° C. After 10 min, 5-10% ethanol was added. The cells were pelleted at 8000 rpm for 1 min and were washed twice in 1×TE buffer and re-suspended in 250 μl-500 μl 1×TE pH7.5. The cells were plated out on SD agar medium and incubated at 30° C. for 2-3 days.
(§4) Recombinant yeast cells were grown in culture using the following protocol: • 1. […] On day two, once OD600 (i.e. OD measured at 600 nm) of the cultures reached 5 to 6 OD-s, the cultures were inoculated into 400 ml YPD medium (1% Bacto Peptone, 1% yeast extract, 2% glucose) with appropriate nutrients in 2-liter flask. […] On day three, after 16 hours, optical density was again measured at 600 nm after diluting the original culture 1:10. […] At the final step, supernatant was poured away and the dry pellet was frozen at −80° C. and the pellet weight was recorded. […]
(§5) The cell pellet that had been obtained from the earlier cell culture was weighed and the weight of cell pellet was recorded. […]

[2] = tested on: CYP1A2; experiment: Amount of CYP1A2 in yeast microsomes by CO-difference spectra, co-expressed with P450 reductase variants; assay type: cell-based, human; conditions: relative to hRD = 1; yeast W303B, pSYE265
Experimental: as §1, §2, §3, §4, §5

[3] = tested on: yeast cells; experiment: Dihydroethidium assay for ROS detection in yeast cells expressing a P450 reductase; assay type: cell-based, Saccharomyces cerevisiae; conditions: gene synthesized using yeast-biased codons compared with ΔN1hRD-M gene isolated from human liver cDNA library; FIG. 13
Experimental: The reactive oxygen species generated in yeast cells due to expression of a P450 reductase were assessed using dihydroethidium fluorescence assay. Reactive oxygen species reacts with dihydroethidium to produce ethidium bromide which binds to the nuclear DNA and emits red fluorescence. Dihydroethidine is one of the best reagents available for measuring intracellular production of reactive oxygen species. After overnight induction of a P450 reductase, the cultures were analysed for induction of reactive oxygen species. The control (wt-hRD) and test (ΔN1hRD-M, ΔN1hRD-HDEL, ΔN2hRD-HDEL) yeast cultures were washed in sterile PBS and then incubated with dihydroethidium (5 μM final concentration) for 30 min. After washing with sterile PBS twice (to remove the extracellular dye), the samples were transferred into 96-well black plates with transparent bottom (COSTAR®). Fluorescence was measured using a BIO-TEK® plate reader. Excitation and emission wavelengths were 260 and 610 nm respectively. The percent induction in the formation of reactive oxygen species was calculated by comparing with cultures where genes were not induced.

[4] = tested on: CYP; experiment: CYP specific activity on co-expression of a CYP with the reductase; assay type: biochemical; conditions: co-expressed with a CYP
Description: The activity of cytochrome P450 may be measured by the EROD assay or by other assays known in the art. The expression of cytochrome P450 may be measured using CO-difference spectra as is known in the art and is described in the examples herein.

Row | Molecule | Relative Amounts of CYP2D6 Obtained [1] | Relative Amounts of CYP1A2 Obtained [2] | ROS produced [3] | CYP specific activities [4]
1 | B1 | 4.0 ± 10% | 4.5 ± 10% |  | 
2 | B2 | 3.8 ± 10% | 4.0 ± 10% |  | 
3 | B3 | 3 ± 10% | 3.2 ± 10% | far less ROS | higher CYP specific activities
4 | B4 | 1 | 1 |  | 
